Experimental findings from patent publication US20050008642A1 are described below.

For the test, the target named is IGF-IR on cells (HT29, NCI H322M human tumor cells; 3T3 cells transfected with IGF-IR) (human) (UniProt P08069). Put plainly: cell-based or functional assay.

αIR3 (antibody) returned an Akt/PKB phosphorylation in the absence of IGF-I (Western blot) of over 5 nM.
